Four molecules from US20220362330A1, “Compositions and Methods for Increasing Epithelial Barrier Function” (The Board of Trustees of the Leland Stanford Junior …, priority 2019, published 2022) can be followed below.

One series has as its system DSG1 protein. Briefly: DSG1 protein levels in vaginal tissue, immunofluorescent staining and confocal microscopy. Type of series: in vivo, mice. The conditions noted are these: for levels of DSG1 protein in vaginal tissue: His-tagged ephrins 1.5 ug/30 uL ivag; for levels of DSG1 protein in vaginal tissue / DSG1 protein levels in vaginal tissue: 24 h; for DSG1 protein levels in vaginal tissue: OVX mice, single ivag dose. How it is done: Excised mouse vaginas were formaldehyde fixed and paraffin embedded (FFPE), and 10 μm sections mounted on glass slides and de-paraffinized by sequential immersion in 100% xylene, 100% ethanol, 96% ethanol, and sterile DEPC-treated water. Antigen retrieval was performed using 10 mM sodium citrate buffer (pH 6.0) containing 0.05% Tween 20 (both Sigma-Aldrich) (20 minutes at 95° C.). After 3 PBS washes, sections were incubated overnight in 10% normal goat serum (Abcam, Cambridge Mass.) at 4° C., then incubated for 1 h at ambient temperate with rabbit anti-desmoglein-1 (clone EPR6766(B)) antibody, washed and incubated for 1 h with AlexaFluor® 488-labeled goat anti-rabbit IgG (antibodies from Abcam) (all antibodies were diluted in PBS with 1% BSA and 0.05% Tween 20). Sections were stained with DAPI and evaluated for levels of DSG1 protein (defined by calculating pixel numbers per 100 μm^2) using confocal microscopy and ImageJ software.

The subject of series [1] is claudin-1, occludin, and tight junction protein 1. Briefly: Gene expression of other cell-cell adhesion molecules in vaginal tissue. Type of series: in vivo, mice.
The test system of the next series is desmoglein-1a (DSG1a). Briefly: qRT-PCR of Dsg1a gene expression in vaginal tissue. To be noted: for relative expression of Dsg1a: DMPA-treated mice, His-tagged ephrins 1.5 ug/30 uL ivag; for relative expression of Dsg1a / Dsg1a gene expression in vaginal tissue: 24 h; for Dsg1a gene expression in vaginal tissue: OVX mice, single ivag dose. Type of series: in vivo, mice. The protocol: (§1) To define progestin-mediated changes in mucosal permeability, vaginal tissue from mice in estrus, diestrus, or after DMPA or LNG treatment was used to measure expression of the desmosomal cadherins desmoglein-1a (DSG1a) and desmocollin-1 (DSC1).
(§2) Human ectocervical and murine vaginal tissues were immediately immersed in 1 mL of RNAlater® (Qiagen), stored for 24 h at 4° C., and stored long-term at −80° C. RNA isolated using the RNeasy Lipid Tissue Kit (Qiagen) using manufacturer's instructions was re-suspended in nuclease-free water and quantified using a NanoDrop spectrophotometer (Thermo Scientific). The following mouse primers were utilized: desmocollin 1 (Mm00496525_ml), desmoglein-1α (Mm00809994_s1), ephrinA3 (Mm01212723_g1) and pyruvate carboxylase (Mm00500992_ml) as housekeeping reference gene (all from Thermo Scientific). These human primers were used: desmoglein-1 (Hs00355084_m1) and glucose-6-phosphate isomerase (Hs00976711_m1) as a housekeeping reference gene. To define relative gene expression, 100 ng of RNA was mixed with TaqMan® RNA-to-Ct™ 1-Step Kit and adequate primer (final volume of 10 μL/well) using manufacturer's instructions (Life Technologies). qRT-PCR was performed using a Quantstudio3 Thermal Cycler, and data analyzed via Quanstudio Software (Applied Biosystems).
Background: In qPCR the cycle at which signal appears reflects the starting amount.

The next series concerns desmocollin-1 (DSC1). Description: qRT-PCR of Dsc1 gene expression in vaginal tissue. It is filed as in vivo, mice. The protocol: as §1, §2
In series [2] the test system is genital mucosal barrier. Description: Murine tissue permeability assay, low molecular weight fluorescent molecules given intravaginally. It is filed as in vivo, mice. How it is done:
Effects of progestins on genital mucosal barrier permeability were evaluated by intravaginally (ivag) administering 457 Da and 70 KDa-sized fluorescent molecules to mice in estrus or diestrus-stage or after DMPA or LNG treatment. Mice were grouped as follows: untreated in estrus, untreated in diestrus, DMPA treated, or LNG treated. The mice were intravaginally administered a PBS solution containing Lucifer yellow (457 Da) and Texas-Red-conjugated dextran (70 KDa). Animals were euthanized 45 minutes later to assess vaginal tissue penetration of these molecules by confocal microscopy. […] Mucosal permeability was increased moderately by diestrus, but dramatically by DMPA or LNG. Conversely, permeability increases were negligible in estrus-stage mice and mice treated with MePRDL or DMPA and RU486. This indicates exogenous progestins increase genital mucosal permeability.
To evaluate mucosal permeability to low molecular weight molecules, indicated groups of mice were sedated, and 10 μL of a PBS solution containing 62.5 μg of dextran Texas-Red® (DR) (MW=70,000 Da) and 50 μg of Lucifer yellow CH, lithium salt (LY) (MW=457.2 Da) (both from Life Technologies) administered intravaginally. 45 minutes later, mice were euthanized, and excised vaginal tissue fixed in formaldehyde. Fixed tissue was embedded in agarose, and 200-300 μm specimens were sectioned with a vibratome. After counterstaining with 4,6-diamidino-2-phenylindole (DAPI), confocal microscopy images were acquired by sequential scanning to prevent fluorescence crossover.

Another series deals with HSV-2. Briefly: Lethal genital HSV-2 infection. The conditions noted are these: DMPA-treated mice. It is filed as in vivo. How it is done: Mice were sedated with xylazine (Lloyd Laboratories, Shenandoah Iowa) and ketamine hydrochloride (JHP Pharmaceuticals, LLC Rochester Mich.), and intravaginally infected with 10^4 plaque-forming units (pfu) of WT HSV-2 333 in 10 μL of RPMI. Mouse mortality was evaluated daily for 15 days.

The subject of another series is HSV-1. Description: Genital HSV-1 GFP infection, virus replication in vaginal epithelium. It is filed as in vivo, mice. The conditions noted are these: DMPA-treated mice. How it is done: Estrus-stage or DMPA-treated mice were intravaginally administered vehicle or recombinant mouse Fc-EFNA3 at 1.5 ug/30 uL 24 h prior to genital infection with 3×10^3 PFU HSV-1q GFP (fluorescent virus). Vaginal tissue was recovered 24 h after infection and evaluated for HSV-1 replication in the vaginal epithelium using confocal microscopy. […] To evaluate if treatment with rm-EphrinA3 protects mice from lethal HSV-2 infection, DMPA-treated mice were intravaginally administered Fc- or His-tagged versions of the rm-protein prior to infection. […] Because the microarray data indicated EphrinA1, EphrinA2, EphrinA3, EphrinA4, and EphrinA5 were upstream regulators of Dsg1 and Dsc1 expression in the mouse vagina, we hypothesized that capacity of EphrinA3 to increase cell-cell adhesion molecule expression may be shared by other members of the EphrinA family.

Series [3] relates to genital mucosal barrier. Description: Murine tissue permeability assay, low molecular weight fluorescent molecules given intravaginally. The conditions noted are these: OVX mice, single dose, vs untreated OVX mice. Type of series: in vivo, mice.
Setting [4] is: progestin-treated mice vs mice in estrus.

Turning to `C#C[C@]1(O)CC[C@H]2[C@@H]3CCC4=CC(=O)CC[C@@H]4[C@H]3CC[C@@]21CC` [LNG, reference compound], in the series with DSG1 protein (setting [4]), the “DSG1a protein expression in vaginal tissue” value is “significantly reduced”. In addition, in series [1], the “gene expression of claudin-1, occludin, and tight junction protein 1” value is on record as “did not alter”. For the same molecule, in the series on desmoglein-1a (DSG1a) (setting [4]), the “DSG1a gene expression in vaginal tissue” value is recorded as “decrease gene expression levels”. For the same molecule, the “DSC1 gene expression in vaginal tissue” value in the series on desmocollin-1 (DSC1) (setting [4]) was “decrease gene expression levels”. For the same molecule, the “penetration of the 457 Da molecules into vaginal tissue” value in the series with genital mucosal barrier [2] (confocal images, 45 minutes after ivag administration) is given as “greatest penetration”. Moreover, the Mucosal permeability increase entry in the series on genital mucosal barrier [2] (mice, ivag Lucifer yellow (457 Da) and Texas-Red dextran (70 KDa), 45 minutes, confocal microscopy) was “dramatically”.

B1: His-EFNA3: Ephrin A3 Protein, Mouse, Recombinant (His Tag), SEQ ID NO: 15 (protein, UniProt P52797 23-214, looked up)
Ephrin-A3: QGPGGALGNRHAVYWNSSNQHLRREGYTVQVNVNDYLDIYCPHYNSSGVGPGAGPGPGGGAEQYVLYMVSRNGYRTCNASQGFKRWECNRPHAPHSPIKFSEKFQRYSAFSLGYEFHAGHEYYYISTPTHNLHWKCLRMKVFVCCASTSHSGEKPVPTLPQFTMGPNVKINVLEDFEGENPQVPKLEKSISG
modifications: His tag
Turning to B1, the “levels of DSG1 protein in genital tissue” value in the series with DSG1 protein (DMPA-treated mice, ivag in 10 μL of PBS, 24 hours) was “increased levels of DSG1 protein”. Moreover, the “survival after genital HSV-2 infection” value with HSV-2 (10^4 pfu of HSV-2) was “improves the survival”.

B2: EphrinA2: Ephrin A2/EFNA2 Protein, Mouse, Recombinant (His Tag), SEQ ID NO: 17 (protein)
chain: MAPAQRPLLPLLLLLLPLRARNEDPARANADRYAVYWNRSNPRFQVSAVGDGGGYTVEVSINDYLDIYCPHYGAPLPPAERMERYILYMVNGEGHASCDHRQRGFKRWECNRPAAPGGPLKFSEKFQLFTPFSLGFEFRPGHEYYYISATPPNLVDRPCLRLKVYVRPTNETLYEAPEPIFTSNHHHHHH
modifications: His tag
In the case of B2, the “levels of DSG1 protein in vaginal tissue” value was “similarly increase” in the series on DSG1 protein (DMPA-treated mice) and “increased levels of DSG1 protein” with DSG1 protein (DMPA-treated mice, listed as EFNA2). The “relative expression of Dsg1a” value in the series with desmoglein-1a (DSG1a) is given as “increased relative expression”.

B3: EphrinA3: mouse recombinant EphrinA3; Fc- or His-tagged version not always specified at the place (protein, UniProt O08545 23-206, looked up)
Ephrin-A3: QGPGGALGNRHAVYWNSSNQHLRREGYTVQVNVNDYLDIYCPHYNSSGPGGGAEQYVLYMVNLSGYRTCNASQGSKRWECNRQHASHSPIKFSEKFQRYSAFSLGYEFHAGQEYYYISTPTHNLHWKCLRMKVFVCCASTSHSGEKPVPTLPQFTMGPNVKINVLEDFEGENPQVPKLEKSISG
As for B3, the “levels of DSG1 protein in vaginal tissue” value in the series with DSG1 protein (DMPA-treated mice) is listed as “similarly increase”; with DSG1 protein (DMPA-treated mice, listed as EFNA3), “increased levels of DSG1 protein”. Further, the results for the “DSG1 protein levels in vaginal tissue” value in the series with DSG1 protein and in the series on DSG1 protein (listed as EFNA3) were “greatly improved” and “increases”, respectively. The “HSV-1 replication in mouse genital tissue” value in the series with HSV-1 is reported as “reduced”. In addition, the “genital mucosal barrier function (penetration of lucifer yellow, 457 Da)” value with genital mucosal barrier [3] is given as “improved function of the genital mucosal barrier”; in the series on genital mucosal barrier [3] (listed as EFNA3), “enhanced genital mucosal barrier function”. Besides, the “relative expression of Dsg1a” value in the series with desmoglein-1a (DSG1a) was “increased relative expression”. Also, the “Dsg1a gene expression in vaginal tissue” value in the series on desmoglein-1a (DSG1a) is on record as “greatly improved”; in the series with desmoglein-1a (DSG1a) (listed as EFNA3), “increases”. Besides, the “Dsc1 gene expression in vaginal tissue” value in the series with desmocollin-1 (DSC1) (OVX mice, single ivag dose, 24 h) is recorded as “increases”. In addition, in the series with HSV-2 (one ivag dose (Fc- or His-tagged) prior to lethal HSV-2 infection, compared to DMPA alone), the reduction of mortality entry is on record as “approximately 25%”. Also, in the series on genital mucosal barrier [2] (DMPA-treated mice, one ivag dose of 1.5 ug/30 uL), the “genital mucosal barrier function / permeability to LMW fluorescent molecules” value is “enhanced genital mucosal barrier function”.
